Assay results taken from patent US20240158497A1 (published 2024).

B1: MAb16636 (antibody, V domains shown)
VH: QLQLQESGPGLVKPSETLSLICTVSGGSISSNNYYWGWIRQPPGKGLEWIGNLYGSGSTYYNPSLKSRVTISVDTSKNQFSLKLSFVTAADTAVYHCARWDTNGGAFDIWGQGTMVTVSS
VL: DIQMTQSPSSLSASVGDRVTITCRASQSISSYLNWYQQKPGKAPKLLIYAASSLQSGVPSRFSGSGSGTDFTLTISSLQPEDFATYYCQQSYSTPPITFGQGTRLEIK
B2: MAb16637 (antibody, V domains shown)
VH: QVQLVQSGAEVKKPGASVKVSCKASGYTFTSLGISWVRQAPGQGLEWMGWISAYSGNRDYAQKFQGRVTMTTDTSTSTAYMELRSLRSDDTAVYYCARSLRFDYWGQGTLVTVSS
VL: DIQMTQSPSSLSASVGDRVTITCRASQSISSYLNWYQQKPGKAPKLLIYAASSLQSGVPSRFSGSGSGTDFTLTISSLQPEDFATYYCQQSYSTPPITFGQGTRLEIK
B3: MAb16656 (antibody, V domains shown)
VH: EVQLVESGGGLVQPGRSLRLSCAASGFTLDDFAMHWVRQAPGKGLEWVSGISWNSGNIGYADSVKGRFTISRDNARNSLYLQMNSLRAEDTALYYCTSGYYLYYAMDVWGQGTTVTVSS
VL: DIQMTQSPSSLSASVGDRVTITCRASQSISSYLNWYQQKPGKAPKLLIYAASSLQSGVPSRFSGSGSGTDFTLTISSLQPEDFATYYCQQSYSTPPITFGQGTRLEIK
B4: MAb16659 (antibody, V domains shown)
VH: QVQLVQSGPEVKKPGSSVKVSCKASGGTIDRNEITWVRQAPGQGLEWMGVIIPILGEAHYERKFQGRLTITMDESTSTAYMELSNLRSEDTAVYYCARERAARGYLDYWGQGTLVTVSS
VL: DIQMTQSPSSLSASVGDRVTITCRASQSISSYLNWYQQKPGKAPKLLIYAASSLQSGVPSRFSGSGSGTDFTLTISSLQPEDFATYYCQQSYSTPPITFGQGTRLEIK
B5: MAb16662 (antibody, V domains shown)
VH: EVQLVESGGGLVQPGGSLRLSCTASGFTFSNYAIFWVRQAPGKGLEYVSGISNNGVTKYYADSVRDRFTISRDNSRNTVSIQMDSLRTEDMAVYYCARENWGSDDGFDIWGQGTMVTVSS
VL: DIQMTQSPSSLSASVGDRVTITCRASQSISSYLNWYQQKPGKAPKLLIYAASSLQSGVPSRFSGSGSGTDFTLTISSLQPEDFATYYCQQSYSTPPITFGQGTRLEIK
B6: MAb16664 (antibody, V domains shown)
VH: QVQLVQSGTEVKKPGSSVKVSCKASGGTFSTYPINWVRQAPGQGLEWMGGIIPIFGTASYAQKFQGRVAITTDESTSTAYMELNSLRSEDTAVYYCARERPNWGSNDYWGQGTLVTVSS
VL: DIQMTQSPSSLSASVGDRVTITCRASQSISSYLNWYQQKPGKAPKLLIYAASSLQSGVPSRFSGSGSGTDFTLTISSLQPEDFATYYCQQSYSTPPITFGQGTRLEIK
B7: MAb16665 (antibody, V domains shown)
VH: QVQLVESGGGVVQPGRSLRLACAASGFTFRSYGMHWVRQAPGKGLEWVAVIWYDGSNKYYTDSVKGRFTISRDNSKNTLYLQMNSLRAEDTAMYYCAIDKWATVTTYLFDYWGQGTLVTVSS
VL: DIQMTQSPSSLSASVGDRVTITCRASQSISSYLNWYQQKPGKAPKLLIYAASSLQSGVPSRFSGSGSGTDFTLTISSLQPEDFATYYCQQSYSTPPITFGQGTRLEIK
B8: MAb16666 (antibody, V domains shown)
VH: EVQLVESGGGLVQSGGSLRLSCAASGFTFSRYEMNWVRQAPGKGLEWVAYISNTGTTRDYSDSVKGRFTISRDNAKNSLYLQMSSLRVEDTAVYYCVREKFSGTSDWFDPWGQGTLVTVSS
VL: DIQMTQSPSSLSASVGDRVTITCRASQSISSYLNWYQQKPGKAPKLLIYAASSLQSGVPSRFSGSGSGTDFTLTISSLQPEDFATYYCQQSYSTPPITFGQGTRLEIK
B9: MAb16673 (antibody, V domains shown)
VH: EVQLVQSGAEVKKPGESLKISCKGSGYSFTSYWIDWVRQMPGKGLEWMGIIYPDDSDTRYSPSFQGQVTMSVDKSISTAYLQWSSLKASDTAIYYCARHERGIVEAGTDYYYYYGMDVWGQGTTVTVSS
VL: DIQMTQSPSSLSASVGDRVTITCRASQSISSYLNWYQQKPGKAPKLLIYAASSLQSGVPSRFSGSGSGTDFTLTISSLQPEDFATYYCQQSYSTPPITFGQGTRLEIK
B10: MAb16676 (antibody, V domains shown)
VH: QVQLVQSGAEVMKPGASVKVSCRASGYTFSSYDINWVRQAPGQGLEWMGWISTATGNTNYPQKVQGRVTMTTDTSTNTAYMELRSLRSDDTAVYYCTREGNSKGWLDPWGQGTLVTVSS
VL: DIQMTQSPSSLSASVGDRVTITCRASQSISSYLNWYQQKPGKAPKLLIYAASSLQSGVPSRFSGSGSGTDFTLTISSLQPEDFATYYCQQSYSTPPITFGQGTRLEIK
B11: MAb16682 (antibody, V domains shown)
VH: EVQLVESGGGLVQPGGSLRLSCAASGFTFSTYWMNWVRQAPGKGLEWVANIKEDGSEKYYVDSVKGRFTISRDNAKNSLYLQMNSLRAEDTAVYYCAREGFGVVTYIWGQGTMVTVSS
VL: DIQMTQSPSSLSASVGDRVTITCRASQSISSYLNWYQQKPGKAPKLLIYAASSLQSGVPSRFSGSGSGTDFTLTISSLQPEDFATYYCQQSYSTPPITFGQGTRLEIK

Legend:
[1] = target: T1, human GP130 delta D1-D3 expressed with a C-terminal myc-myc hexahistidine tag (human, UniProt P40189 329-619); experiment: Luminex, myc-captured antigen
T1 construct: CHO supernatant, captured on anti-myc microspheres; also called human GP130 delta D1-D3-MMH
Method: (§1) Aliquots of microspheres with immobilized anti-myc monoclonal antibodies, prepared as described above, were added individually to 1 mL of the each of these protein supernatants and to 500 uL of purified GP130 protein. The microspheres were gently mixed, incubated for two hours at 25° C., washed twice with 1 mL of DBPS, centrifuged to remove the supernatant and finally resuspended in 1 mL of DPBS buffer. Forty eight μL of anti-myc IgG coupled microspheres from individual reactions with full length human GP130 and with each of the human GP130 domain proteins were withdrawn and mixed together in 3.6 mL of PBS+20 mg/mL BSA+0.05% sodium azide (blocking buffer).
(§2) From this mixed pool, 75 μL of microspheres were plated per well on a 96 well filter plate (Millipore, Cat. No: MSBVN1250) and mixed with 25 μL of individual anti-human GP130 monoclonal antibodies (0.5 or 5 μg/mL), incubated for two hours at 25° C. and then washed twice with 200 μL of DPBS with 0.05% Tween 20 (washing buffer). To detect and quantify the amounts of bound anti-GP130 antibody levels to individual microspheres, either 100 μL of 2.5 μg/mL R-Phycoerythrin conjugated goat F(ab′)2 anti-human kappa (Southern Biotech, Cat #2063-09) in blocking buffer, was added and incubated for 30 minutes at 25° C. After 30 minutes, the samples were washed twice with 200 μL of washing buffer and resuspended in 150 μL of wash buffer. The Median Fluorescence intensity (MFI) of the microspheres was measured in a Luminex Analyzer.

[2] = target: T2, human GP130 extracellular domain expressed with a C-terminal myc-myc-hexahistidine tag (human, UniProt P40189 23-619); experiment: SPR 25C, mAb captured, hGP130-MMH injected
T2 construct: monomeric; also called hGP130-mmH; hGP130-MMH
Method: (§3) Equilibrium dissociation constant (KD) for different GP130 reagents binding to purified anti-GP130 monoclonal antibodies were determined using a real-time surface plasmon resonance based Biacore 4000 biosensor. All binding studies were performed in 10 mM HEPES, 150 mM NaCl, 3 mM EDTA, and 0.05% v/v Surfactant Tween-20, pH 7.4 (HBS-ET) running buffer at 25° C. and 37° C. The Biacore sensor surface was first derivatized by amine coupling with a monoclonal mouse anti-human Fc antibody (GE, #BR-1008-39) to capture anti-GP130 monoclonal antibodies. […] Reagents tagged with “mmH” are monomeric, whereas reagents tagged with “mFc” are dimeric. Thus, for example, “hGP130-mmH” is also referred to as “monomeric human GP130,” and “hGP130-mFc” is also referred to as “dimeric human GP130.”
(§4) The association rate (k a) and dissociation rate (kd) were determined by fitting the real-time binding sensorgrams to a 1:1 binding model with mass transport limitation using Scrubber 2.0c curve-fitting software. Binding dissociation equilibrium constant (KD) and dissociative half-life (t ½) were calculated from the kinetic rates as: […]

[3] = target: T3, mouse GP130 extracellular domain expressed with a C-terminal myc-myc-hexahistidine tag (mouse, UniProt Q00560 23-617); experiment: SPR
T3 construct: monomeric; also called mGP130-mmH; mGP130-MMH
Method: as §3, §4

[4] = target: T4, human GP130 delta D1 expressed with a C-terminal myc-myc hexahistidine tag (human, UniProt P40189 124-619); experiment: Luminex, myc-captured antigen
T4 construct: CHO supernatant, captured on anti-myc microspheres; also called human GP130 delta D1-MMH
Method: as §1, §2

T3 sequence (Q00560 other isoform, or with tags, fused parts or gaps): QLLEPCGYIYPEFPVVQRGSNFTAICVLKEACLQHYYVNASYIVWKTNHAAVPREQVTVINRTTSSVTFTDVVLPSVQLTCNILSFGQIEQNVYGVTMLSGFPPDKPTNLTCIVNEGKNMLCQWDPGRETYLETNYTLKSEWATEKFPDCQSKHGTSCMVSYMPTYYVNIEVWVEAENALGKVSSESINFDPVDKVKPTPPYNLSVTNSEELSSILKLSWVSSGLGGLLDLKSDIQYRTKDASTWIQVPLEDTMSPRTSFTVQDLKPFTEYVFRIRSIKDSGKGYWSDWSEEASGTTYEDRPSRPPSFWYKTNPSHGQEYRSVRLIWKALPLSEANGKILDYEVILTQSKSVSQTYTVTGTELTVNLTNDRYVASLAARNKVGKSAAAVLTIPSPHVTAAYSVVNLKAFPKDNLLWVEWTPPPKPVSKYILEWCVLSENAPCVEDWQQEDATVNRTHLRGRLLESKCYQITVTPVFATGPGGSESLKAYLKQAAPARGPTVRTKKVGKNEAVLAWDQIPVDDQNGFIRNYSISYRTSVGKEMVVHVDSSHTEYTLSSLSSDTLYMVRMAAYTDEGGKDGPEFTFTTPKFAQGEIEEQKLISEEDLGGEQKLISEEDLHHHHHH
T4 sequence (P40189 other isoform, or with tags, fused parts or gaps mutant limits assumed): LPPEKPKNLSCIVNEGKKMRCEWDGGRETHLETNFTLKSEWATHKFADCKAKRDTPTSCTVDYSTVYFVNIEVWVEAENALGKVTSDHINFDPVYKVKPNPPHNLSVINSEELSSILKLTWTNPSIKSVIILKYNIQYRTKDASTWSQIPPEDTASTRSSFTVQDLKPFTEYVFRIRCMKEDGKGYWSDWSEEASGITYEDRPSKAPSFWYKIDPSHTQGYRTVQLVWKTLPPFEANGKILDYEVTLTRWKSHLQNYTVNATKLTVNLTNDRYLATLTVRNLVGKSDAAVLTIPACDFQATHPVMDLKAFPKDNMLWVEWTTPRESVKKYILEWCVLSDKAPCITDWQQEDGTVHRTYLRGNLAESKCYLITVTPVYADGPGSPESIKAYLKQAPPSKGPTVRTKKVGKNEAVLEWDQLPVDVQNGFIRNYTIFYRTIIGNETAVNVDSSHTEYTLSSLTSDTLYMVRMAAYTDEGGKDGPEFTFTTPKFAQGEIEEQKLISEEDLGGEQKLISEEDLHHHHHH
T1 sequence (P40189 other isoform, or with tags, fused parts or gaps mutant limits assumed): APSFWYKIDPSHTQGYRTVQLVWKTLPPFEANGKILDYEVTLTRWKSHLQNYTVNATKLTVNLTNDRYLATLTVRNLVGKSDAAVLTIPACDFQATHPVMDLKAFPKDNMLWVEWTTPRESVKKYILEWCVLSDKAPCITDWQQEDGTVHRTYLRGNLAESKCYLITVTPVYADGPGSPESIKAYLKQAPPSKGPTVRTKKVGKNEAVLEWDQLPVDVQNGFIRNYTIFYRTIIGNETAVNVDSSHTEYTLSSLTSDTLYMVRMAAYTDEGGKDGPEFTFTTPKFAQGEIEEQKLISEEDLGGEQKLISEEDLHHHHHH
T2 sequence (P40189 other isoform, or with tags, fused parts or gaps): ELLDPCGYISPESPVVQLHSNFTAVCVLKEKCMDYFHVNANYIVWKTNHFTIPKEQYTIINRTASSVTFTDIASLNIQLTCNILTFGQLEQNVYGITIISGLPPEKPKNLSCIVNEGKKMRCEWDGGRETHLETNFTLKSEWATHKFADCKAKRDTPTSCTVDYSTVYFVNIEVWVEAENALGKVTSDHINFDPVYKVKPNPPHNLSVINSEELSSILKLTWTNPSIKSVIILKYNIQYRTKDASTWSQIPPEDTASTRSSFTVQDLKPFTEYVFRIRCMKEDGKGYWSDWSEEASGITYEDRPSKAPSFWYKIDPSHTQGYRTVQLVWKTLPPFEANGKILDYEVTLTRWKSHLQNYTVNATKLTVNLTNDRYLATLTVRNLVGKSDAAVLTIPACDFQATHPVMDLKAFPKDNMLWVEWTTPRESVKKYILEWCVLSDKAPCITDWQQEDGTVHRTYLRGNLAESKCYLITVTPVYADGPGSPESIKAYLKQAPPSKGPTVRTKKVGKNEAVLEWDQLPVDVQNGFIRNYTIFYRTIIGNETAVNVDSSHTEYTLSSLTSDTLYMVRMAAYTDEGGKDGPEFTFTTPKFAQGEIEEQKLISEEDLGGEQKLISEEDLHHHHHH

Row | Binder | binding result [1] | 100 nM Ag Bound (RU) [2] | Kd [2] | koff [2] | kon [2] | t½ [2] | binding result [3] | binding result [4]
1 | B1 | no binding (tested: 0.5 or 5 µg/mL) | 37 RU | 36.8 nM | 0.000993 s⁻¹ | 27000 M⁻¹ s⁻¹ | 12 min | no binding (tested: 100 nM) | 
2 | B2 | no binding (tested: 0.5 or 5 µg/mL) | 91 RU | 15.5 nM | 0.0011 s⁻¹ | 71100 M⁻¹ s⁻¹ | 10 min | no binding (tested: 100 nM) | no binding (tested: 0.5 or 5 µg/mL)
3 | B3 | no binding (tested: 0.5 or 5 µg/mL) | 44 RU | 23 nM | 0.000825 s⁻¹ | 35900 M⁻¹ s⁻¹ | 14 min | no binding (tested: 100 nM) | no binding (tested: 0.5 or 5 µg/mL)
4 | B4 | no binding (tested: 0.5 or 5 µg/mL) | 77 RU | 0.663 nM | 0.000459 s⁻¹ | 693000 M⁻¹ s⁻¹ | 25 min | no binding (tested: 100 nM) | no binding (tested: 0.5 or 5 µg/mL)
5 | B5 | no binding (tested: 0.5 or 5 µg/mL) | 22 RU | 123 nM | 0.029 s⁻¹ | 235000 M⁻¹ s⁻¹ | 0.4 min | no binding (tested: 100 nM) | 
6 | B6 | no binding (tested: 0.5 or 5 µg/mL) | 14 RU | 2.35 nM | 0.00164 s⁻¹ | 698000 M⁻¹ s⁻¹ | 7 min | no binding (tested: 100 nM) | no binding (tested: 0.5 or 5 µg/mL)
7 | B7 | no binding (tested: 0.5 or 5 µg/mL) | 20 RU | 411 nM | 0.0473 s⁻¹ | 115000 M⁻¹ s⁻¹ | 0.2 min | no binding (tested: 100 nM) | no binding (tested: 0.5 or 5 µg/mL)
8 | B8 | no binding (tested: 0.5 or 5 µg/mL) | 138 RU | 14.4 nM | 0.00456 s⁻¹ | 317000 M⁻¹ s⁻¹ | 3 min | no binding (tested: 100 nM) | 
9 | B9 | no binding (tested: 0.5 or 5 µg/mL) | 58 RU | 65.5 nM | 0.0141 s⁻¹ | 215000 M⁻¹ s⁻¹ | 0.8 min | no binding (tested: 100 nM) | 
10 | B10 | no binding (tested: 0.5 or 5 µg/mL) | 51 RU | 2.19 nM | 0.000631 s⁻¹ | 287000 M⁻¹ s⁻¹ | 18 min | no binding (tested: 100 nM) | no binding (tested: 0.5 or 5 µg/mL)
11 | B11 | no binding (tested: 0.5 or 5 µg/mL) | 21 RU | 136 nM | 0.0164 s⁻¹ | 121000 M⁻¹ s⁻¹ | 0.7 min | no binding (tested: 100 nM) | 
